T1: recombinant human CD73 protein (ecto-5'-nucleotidase), expressed by the applicant, C-terminal 6x His tag (human, UniProt P21589 27-547)
T1 sequence: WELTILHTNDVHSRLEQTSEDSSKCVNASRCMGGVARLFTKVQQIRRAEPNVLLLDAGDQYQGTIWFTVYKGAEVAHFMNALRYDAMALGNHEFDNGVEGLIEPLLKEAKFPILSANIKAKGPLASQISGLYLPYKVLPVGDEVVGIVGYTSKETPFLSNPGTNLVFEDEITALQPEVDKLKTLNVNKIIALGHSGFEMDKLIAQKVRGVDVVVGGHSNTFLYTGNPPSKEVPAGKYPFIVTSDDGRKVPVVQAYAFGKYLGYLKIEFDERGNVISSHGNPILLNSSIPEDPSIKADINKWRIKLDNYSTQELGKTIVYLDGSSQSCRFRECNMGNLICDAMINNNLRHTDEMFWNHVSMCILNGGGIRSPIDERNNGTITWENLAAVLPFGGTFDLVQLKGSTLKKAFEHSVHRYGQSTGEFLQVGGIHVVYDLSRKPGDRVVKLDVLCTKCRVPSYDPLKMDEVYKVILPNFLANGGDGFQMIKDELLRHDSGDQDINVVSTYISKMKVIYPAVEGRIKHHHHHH

T2: CD73 on A549 cells (UniProt P21589 27-549, limits assumed)
T2 sequence (looked up): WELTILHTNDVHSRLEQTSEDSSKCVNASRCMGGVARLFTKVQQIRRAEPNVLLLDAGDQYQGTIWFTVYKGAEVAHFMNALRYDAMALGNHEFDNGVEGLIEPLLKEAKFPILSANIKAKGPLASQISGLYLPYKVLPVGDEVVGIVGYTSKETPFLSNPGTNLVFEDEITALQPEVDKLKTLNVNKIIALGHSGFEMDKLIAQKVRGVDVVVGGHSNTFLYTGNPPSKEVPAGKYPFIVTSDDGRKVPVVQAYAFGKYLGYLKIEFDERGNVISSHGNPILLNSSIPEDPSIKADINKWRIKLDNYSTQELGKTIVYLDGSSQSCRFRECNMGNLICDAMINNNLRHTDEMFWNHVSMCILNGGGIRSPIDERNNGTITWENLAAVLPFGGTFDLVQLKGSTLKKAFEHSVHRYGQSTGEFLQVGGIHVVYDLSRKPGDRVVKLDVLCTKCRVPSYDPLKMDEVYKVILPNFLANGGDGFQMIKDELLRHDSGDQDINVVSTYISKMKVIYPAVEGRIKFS

B1: anti-CD73 monoclonal antibody 9-4 (antibody, V domains shown)
VH: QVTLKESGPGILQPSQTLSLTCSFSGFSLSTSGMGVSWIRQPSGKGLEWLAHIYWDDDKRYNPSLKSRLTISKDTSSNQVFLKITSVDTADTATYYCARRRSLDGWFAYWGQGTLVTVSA
VL: DIQMTQSPAALSASVGETVTITCRASGNIHNYLAWYQQKQGKSPQLLVYNTQILADGVPSRFSGSGSGTQYSLKINSLQPEDFGTFYCQHFWDSPWTFGGGTKMEIK
notes: Mouse hybridoma antibody of the IgG type, purified from ascitic fluid
B2: anti-CD73 monoclonal antibody E1-B6 (antibody, V domains shown)
VH: VKLQESGAELARPGASVKLSCKASGYTFTDYYINWVKQRTGQGLEWIGETYPGNGNTYYHEKFKGKATLTADRSSSTAYMQLSSLTSEDSAVYFCARGTYYGSSEYFDYWGQGTTVTVSS
VL: DIVMTQSPKFMSTSVGDRVSITCKASQNVGTAVAWYQQRPGQSPKLLIYSASNRNTGVPDRFTGSGSGTDFTLTISNMQSEDLADYFCQQYSSYIFTFGSGTKLEIN
notes: as for B1
B3: anti-CD73 monoclonal antibody F2-2 (antibody, V domains shown)
VH: VQLQESGPGLVKPSQSLSLTCTVTGHSITSDYVWNWIRQFPGNKLEWMGYISYSGIIKYNPSLKSRISITRDTSKNQFFLQLNSVTTEDTATYYCAGDEYFWFAYWGQGTTVTVSS
VL: DIQMTQSPSSMYASLGERVTITCKASQDIKSYLSWYQQKPWKSPKTLIYYATNLADGVPSRFSGSGSGQDYSLTISSLESDDTATYYCLQHGESPYTFGGGTKLEIK
notes: as for B1
B4: anti-CD73 monoclonal antibody 06-6 (antibody, V domains shown)
VH: QVQLQQSGPELVKPGASVRISCKASGYTFADYFMHWVRLRPGQGLEWIGWIYPGYVNIKYNEKFKGKATLTADKSSSTAYMQLSSLTSEDSAVYFCARGEDYDSAMDYWGQGTSVTVSS
VL: GVVMTQTPLSLPVSLGDQASISCRSSQSLVHSNGNTYLHWYLQKPGQSPKLLIYKVSNRFSGVPDRFSGSGSGTDFTLKISRVEAEDLGVYFCSQSTHVPPWTFGGGTKLEIK
notes: as for B1
B5: anti-CD73 monoclonal antibody 81-2-2 (antibody, V domains shown)
VH: QVQLQQPGAELVKPGASVKLSCKASGYTFTSYWMHWVKQRPGQGLEWIGEINPSNGRTNYNEKFKSKATLTVDKSSSTAYMQLSSLTSEDSAVYYCARRGTSGNFFDYWGQGTTLTVSS
VL: DIKMTQSPSSMYASLGERVTITCKASQDINTYLSWFQQKPGKSPKTLIYRANRLVDGVPSRFSGSGSGQDYSLTISSLEYEDMGIYYCLQFDEFPYTFGGGTKLEIK
notes: as for B1

target: T1, recombinant human CD73 protein …; experiment: cell-based or functional assay

| Binder | EC50 (µg/mL), Biochemical level, inhibition of the enzyme activity of CD73 [µg/mL] |
| --- | --- |
| B1 | 0.211 |
| B2 | 0.232 |
| B3 | 0.109 |
| B4 | 0.206 |
| B5 | 0.239 |

target: T2, CD73 on A549 cells; experiment: cell-based or functional assay

| Binder | EC50 (µg/mL), Cell level (A549 cells), inhibition of the enzyme activity of CD73 [µg/mL] |
| --- | --- |
| B1 | 0.175 |
| B2 | 0.182 |
| B3 | 0.0397 |
| B4 | 0.147 |
| B5 | 0.213 |

target: T1, recombinant human CD73 protein …; experiment: SPR, Biacore T200, antibody captured by anti-mouse Fc IgG, human CD73 injected, 25 °C, 1:1 fit
Procedure: (§1) Anti-mouse Fc IgG was fixated on a CMS sensor chip by amine coupling in order to capture the antibody under test with the coupled anti-mouse Fc IgG. A series of human CD73 proteins having a predetermined concentration gradient were then injected, before the pH 1.7 glycine-HCl regeneration testing system that came with the reagent kit was used.
(§2) HBS-EP+ (10 mM HEPES; pH7.4, 150 mM NaCl; 3 mM EDTA; and 0.05% P20) was used as the running buffer, and the testing temperature was 25° C.
(§3) The binding constant (Ka), dissociation rate constant (Kd), and equilibrium constant (KD) were calculated with the Biacore T200 evaluation software by combining the model fitting data at a 1:1 ratio.

| Binder | Kd [nM] | koff [s⁻¹] | kon [M⁻¹ s⁻¹] |
| --- | --- | --- | --- |
| B1 | 0.452 | 0.00015 | 332000 |
| B2 | 0.813 | 0.000387 | 476000 |
| B3 | 0.0318 | 1.71e-05 | 538000 |
| B4 | 0.753 | 0.000183 | 242000 |
| B5 | 0.49 | 0.000104 | 212000 |

target: T1, recombinant human CD73 protein …; experiment: SPR (Biacore T200), antibody captured on anti-mouse Fc IgG chip, human CD73 injected in a concentration series, 25 C, 1:1 fit; the sheet prints E-4 where the 1st table, row 5, column 4 prints 10^-5; E-4 agrees with the printed ka 4.764E+5 and KD 8.129E-10
Procedure: as §1, §2, §3

| Binder | koff [s⁻¹] |
| --- | --- |
| B2 | 0.000387 |

From patent US20220356267A1 (JIANGSU KANION PHARMACEUTICAL, published 2022)
